This note sets out measurements from article PMC5626701, “Caspase-1 cleaves PPARγ for potentiating the pro-tumor action of TAMs” (Nature Communications, 2017).

The target in this test is T1, HA-tPPARγΔ64D (THP-1) (human, UniProt P37231-2 65-477).
T1 construct: also called truncated PPARγ; source: THP-1, transfected, in cell extract; not shown: HA, C-terminal, kept
T1 sequence (looked up): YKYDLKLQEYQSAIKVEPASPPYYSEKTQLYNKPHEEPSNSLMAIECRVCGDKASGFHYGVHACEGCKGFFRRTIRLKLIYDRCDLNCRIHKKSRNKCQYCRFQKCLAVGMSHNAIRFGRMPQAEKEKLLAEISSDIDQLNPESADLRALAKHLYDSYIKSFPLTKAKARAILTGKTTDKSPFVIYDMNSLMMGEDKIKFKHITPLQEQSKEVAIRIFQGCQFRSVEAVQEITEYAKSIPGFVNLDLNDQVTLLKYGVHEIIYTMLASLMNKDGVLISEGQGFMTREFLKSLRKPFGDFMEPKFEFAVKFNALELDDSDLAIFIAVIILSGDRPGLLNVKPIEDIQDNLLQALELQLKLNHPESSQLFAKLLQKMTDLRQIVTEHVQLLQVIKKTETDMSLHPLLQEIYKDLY
As to the kind of experiment: co-IP; THP-1 cells transfected with HA-PPARγ or HA-tPPARγΔ64D; extracts precipitated with anti-HA and blotted with anti-MCAD, or precipitated with anti-MCAD and blotted with anti-HA; blots scanned. The settings on record: partners not purified.

B1: medium-chain acyl-CoA dehydrogenase (MCAD), endogenous in THP-1 (enzyme, human (endogenous in THP-1), UniProt P11310 26-421, looked up)
chain: KANRQREPGLGFSFEFTEQQKEFQATARKFAREEIIPVAAEYDKTGEYPVPLIRRAWELGLMNTHIPENCGGLGLGTFDACLISEELAYGCTGVQTAIEGNSLGQMPIIIAGNDQQKKKYLGRMTEEPLMCAYCVTEPGAGSDVAGIKTKAEKKGDEYIINGQKMWITNGGKANWYFLLARSDPDPKAPANKAFTGFIVEADTPGIQIGRKELNMGQRCSDTRGIVFEDVKVPKENVLIGDGAGFKVAMGAFDKTRPVVAAGAVGLAQRALDEATKYALERKTFGKLLVEHQAISFMLAEMAMKVELARMSYQRAAWEVDSGRRNTYYASIAKAFAGDIANQLATDAVQILGGNGFNTEYPVEKLMRDAKIYQIYEGTSQIQRLIVAREHIDKYKN
notes: medium-chain acyl-CoA dehydrogenase (MCAD), mitochondrial; detected and precipitated with an anti-MCAD antibody; source: endogenous, THP-1 cell extract
In the case of B1, the “fold MCAD bound against full-length PPARγ” value came to 8 fold.
